The assay has as its target human AXL (full length) (human (Homo sapiens)) (UniProt P30530). The assay is described as follows: flow cytometry, A431 cells pre-incubated with 10 µg/mL Gas6 (competitor: Gas6).

The text below walks through data of patent US20190022243A1.

B1: IgG1-YW327.6S2 (antibody, from another filing, V domains shown)
VH: EVQLVESGGGLVQPGGSLRLSCAASGFSLSGSWIHWVRQAPGKGLEWVGWINPYRGYAYYADSVKGRFTISADTSKNTAYLQMNSLRAEDTAVYYCAREYSGWGGSSVGYAMDYWGQGTLVTVSS
VL: DIQMTQSPSSLSASVGDRVTITCRASQDVSTAVAWYQQKPGKAPKLLIYSASFLYSGVPSRFSGSGSGTDFTLTISSLQPEDFATYYCQQSYTTPPTFGQGTKVEIK
Turning to B1, the fold higher EC50 after Gas6 pre-incubation than without Gas6 amounted to 21 fold and the maximal binding in the presence of Gas6 (% of binding without Gas6) is 19%.
